Source: publication PMC10665668

Tests used:
[1] = biological target: class II sulfofructose-1-phosphate (SFP) aldolase from Hafnia paralvei (Hafnia paralvei); assay: SEC-MALS
[2] = biological target: class II sulfofructose-1-phosphate (SFP) aldolase from Yersinia aldovae (Yersinia aldovae); assay: SEC-MALS

| stoichiometry N [1] | stoichiometry N [2] | Substance |
| --- | --- | --- |
| 4 |  | class II sulfofructose-1-phosphate (SFP) aldolase from Hafnia paralvei (enzyme) |
|  | 4 | class II sulfofructose-1-phosphate (SFP) aldolase from Yersinia aldovae (enzyme) |
